Molecular target: human CCR8 (human) (UniProt P51685)
Test: cell-based or functional assay

Substance “murine anti-human CCR8 mAb L263G8 (Biolegend) (antibody)” has an ADCC reporter EC50, mFcgRIV Jurkat cells with CHO/hCCR8 (FIG. 11D) of 0.28 nM, a CCL1 blocking potency IC50, Ca2+ influx of 23.6 nM and an induction fold at about 1 nM antibody, mFcgRIV Jurkat NFAT-luciferase reporter of over 10 fold. The induction fold plateau at about 40 nM antibody, mFcgRIV Jurkat NFAT-luciferase reporter was 11 fold.

Source: US20230049152A1
